The assay addresses EG(2)-HepN. Nature of the assay: competitive ELISA with EG(2)-HepN; competitor N-terminally biotinylated hepcidin-(28-47). On the technique in general: An ELISA detects its analyte on a solid surface through an enzyme-linked reagent.

Where no end group is shown, it is not given here.

Take PQQTGQLAELQPQDRAGARA (not fully specified (C-terminus)) [hepcidin-(28-47)]: the detection limit of the ELISA turned out to be 0.1 ng/well.

For the origin of these results see US20070224186A1.
